The results in this text go back to patent publication US6849258.

The target of test [1] is human CD2 (CD2 antigen on human PBMC, on COS cells transfected with the entire CD2 molecule, and on CD2-expressing Jurkat cells) (human) (UniProt P06729). Nature of the test: two-colour flow cytometry of human PBMC, biotinylated LO-CD2a (FL1) and Leu-5b-PE (FL2); upper left quadrant. Background: Flow cytometry measures light scatter and fluorescence of single cells or particles in a stream.

For test [2] the target is unchanged. The test is described as follows: two-colour flow cytometry of human PBMC, biotinylated LO-CD2a (FL1) and Leu-5b-PE (FL2); upper right quadrant.

UniProt P06729, sequence (P06729 25-351): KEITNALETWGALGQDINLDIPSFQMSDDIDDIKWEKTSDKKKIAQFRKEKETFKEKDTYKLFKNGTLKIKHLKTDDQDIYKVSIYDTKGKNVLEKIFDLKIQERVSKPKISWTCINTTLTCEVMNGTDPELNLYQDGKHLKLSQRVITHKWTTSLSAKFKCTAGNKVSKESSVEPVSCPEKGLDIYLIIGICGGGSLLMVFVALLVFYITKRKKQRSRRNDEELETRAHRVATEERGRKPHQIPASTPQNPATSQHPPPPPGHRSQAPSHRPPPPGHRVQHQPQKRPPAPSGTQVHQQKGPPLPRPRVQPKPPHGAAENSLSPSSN

As to “Leu-5b, mouse anti-human CD2 monoclonal antibody (Becton Dickinson)”, in test [1], the % gated (quadrant 1UL) turned out to be 23.2% and the Y mean (quadrant 1UL) amounted to 285. Also, the Y mean (quadrant 2UR) in test [2] was determined as 631.
